# Reference: the supplement of paper PMC9942255
# Tested on: Bacillus subtilis DB104 (SP-AmyQ fusion secretion)
# Assay: AmyQ secretion efficiency, weighted average sort bin (1 = best secretion, 10 = worst) (bin number (weighted average, 1-10)); higher = lower secretion efficiency
# Procedure, shortened: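 With fluorescein-starch as substrate, a B. subtilis DB104 library expressing mature AmyQ fused to designed signal peptides (integrated at amyE) was encapsulated at about 0.3 cells per ~65 nL alginate bead. After about 13 h at room temperature, beads were nile red stained, and occupied beads were sorted by large-particle flow cytometry into 10 equally populated bins by green/red fluorescence ratio. Illumina sequencing of the amplicons in each bin was used to calculate the secretion score, which is the read-frequency-weighted average bin number, normalised to beads per bin, with low-abundance sequences left out.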
row,Sequence,AmyQ secretion efficiency
1,MLKKIALTLCPAIVGSLLFFTAPTSAHVS,3.63
2,MTMLRKIIGWILLLCIIPEFAFTVIASGKEV,5.32
3,MRNLTKYTTSKGGLCTAAQMVFVTHASAEES,7.66
4,MLKKIALTLCPAIVGSLLFFTVAPASAHVS,3.73
5,MKKTIMSFFFVAVAALSTTAFGAHASAKEI,2.53
6,MTKLKMLSMLTVMIASLFIFSSQILAVQY,6.11
7,MKKLLAAGIIGLLTVSIASPGFAAEK,2.84
8,MKWMCSICCAAVLLAGGAAQYEAV,7.08
9,MKKRWRKTSQAAVLLLMVPKVSLADAA,7.38
10,MKKKLAAGLTASAIVGTTLVVTPAEDATI,6.33
11,MGLKKRVSMFLVALTMCGGLFVTPAKAVKT,3.29
12,MKRLLSTLLIGIMLLEDEPSAFAKQD,1.9
13,MKKLLAAGIIGLLTVSIASPTFAAEK,2.52
14,MLCVMMLLFSAIASFPVSAQNKDQ,6.98
15,MKKIWIGMLAAAVLLLMVPKVSLRDAA,4.91
16,MPYLKRVLLLLVTGLFMSLFAVTATASVQTG,1.13
17,MKRLFMKASLVLFAVVFVFAVKGAPIKAETH,2.24
18,MGLGKKLSVAVAASFMSLSISLPGVQPAEG,4.8
19,MRNLTKTSLLLAGLCTAAQSEFVTHASAEES,4.61
20,MRGKSAVLLSLIMLIAGFLISFNFQM,6.3
21,MKRRRKPYTKKLALGAALTIAPLSFASAEEN,6.27
22,MKRLLVSLRVWMVFLMNWVTPDRKTAARAVY,5.96
23,MKRSISIFITCLLITLLTMGGMIASPTSAAGT,2.97
24,MKLSVKIAGVLTVAAAAMTAKMYATWKGN,7.14
25,MTMLRKIIGWILLLCIIPLFAFTVIASVKEV,7.89
26,MRNLTKTSLLLAGLCTAAQMVFVTHCSAEES,2.79

row,Sequence,AmyQ secretion efficiency
1,MKKSQYTTLFIVFICFFVLFSVHPIAAAAADS,2.98
2,MFKKHTISLLIIFLLASAVLAKPSEAHTV,2.57
3,MAIIIAIIAANVRNASPG,7.68
4,MKLKSKLLLSCLALSTVFVATTIKNAPTH,6.58
5,MNKLKRLSMLTVMIASVFIFSSHALGAQY,1.69
6,MRPVFPLILSAVLFLSCFFGARQTEGSASKR,4.92
7,MIMLWRSLALCGLALTLAPCAQAAEP,4.91
8,MKSKGSIMACLILFSFTITTFINTETISRFSN,8.63
9,MKLRKVLTGSVLSLGLLVSASPAFATED,2.67
10,MTSSLIGFLVLVPALIMSGITLIEANKK,3.95
11,MPYLKRVLLLLVTGLFMSLFAVTATWSAQTG,6.1
12,MNLRKILLSSALSLGMLVSAAPVLDTSS,6.16
13,MKRFILVLSFLSIIVKKRIQTNASPM,7.76
14,MKIRKILLSSALSFGMLRKRVPALAAGT,6.53
15,MKRLLVSLRVWMVFLMNWVTPKRKTAAAAVY,5.43
16,MKKRLIGFLVLVPALIMSGITLIEANSE,7.68
17,MKKQIITATTAVVLGSTLFAGATSAQSI,1.92
18,MKKVLMAFIICLSLILSVLAAPPSGAKAKRR,2.43
19,MKKIVSILFMFGLVMGFSQFQPSTVFARRK,5.68
20,MKWYCSICCAAVLLAGGAAQAEAV,2.63
21,MKLKKRVSMFLVALTMCGGLFVTPSFPPTAPAKAVKT,5.25
22,MAIIIAIIAAVIVIAALITFNVNNASPG,7.54
23,MKLSVKIAGVLTVAAAAMTAKMYATRKGN,7.91
24,MKRFSTAYLLLGILCSAAVFLIGAPSRALCAEV,3.3
25,MKNMSCKLVVSVTLFFSFLTIGPLAHWQNS,5.85
26,MKKKKKRIITATTAVVLGSTLFAGAASAQSI,1.46

row,Sequence,AmyQ secretion efficiency
1,MKKKKYVVLVLSIAGIGGFSVHAASS,6.5
2,MKKGIIRFLLVSFVLFFALSTGITGVQRAPA,4.88
3,MKRLLVSLRVWMVFLMNWVTPDRKTAAAAKK,7.3
4,MIKKCSVCLWILVLLLSCLSGKSAYAATS,2.24
5,MKKGIIRFLLVSFVLFFALDEDITGVQAAPA,3.78
6,MKRILFLLSTLLIGIMLLTFAPSAFAKQD,1.83
7,MTKKYWQSPYYCRLLISGWLAPAASASAQTT,8.15
8,MFNRLFRVCFLAALIMAFTLPNSVYRQKP,7.13
9,MKLSVKIKKKRRKAAAAMTAKMYATAKGN,7.56
10,MKRLLSTLLIGIMLLTFAPSAFCKQD,2.6
11,MLCVMMLLFSAIASFPVSGQAKDQ,5.05
12,MKRYKQRLRVWMVFLMNWVTPDRKTAAAAVY,6.82
13,MKKWMAGLFLAAAVLLCLMIQGASS,3.95
14,MKRIRIPMTLALGAALTIAPLSFYSAEEN,5.14
15,MPTKKKVMKCLAVTLVFGSMSFPTLTNSGGFKE,7.16
16,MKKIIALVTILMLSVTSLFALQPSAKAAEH,2.46
17,MTKKAWFLPLVCVLLISGWLAPAASISAQTT,2.33
18,MKRIRIPMTLALGAALTIAPLSFDSAEEN,7.3
19,MTMLRKIIGWILLLCIIPLFAFTVIGSGKEV,6.78
20,MTKKAWFLPLVCVLLISGWLAPAASVSAQTT,2.17
21,MSTKQVMLALTAAAGLGLTALHSAPAAKAAPL,2.43
22,MKKIMSAFVGMVLLTIFCFSPQASAEED,2.74
23,MAIIIAIIAAVIVIAALITFNVRNHSPG,6.69
24,MRGTSVVGFLSVLGLAAVFPLTAQAEKA,2.91
25,MKSKGSIMACLILFLFMIFTFINTETISAFSN,5.32
26,MKKSQYFIVFICFFVLFSVHPIAGAAADS,3.96

row,Sequence,AmyQ secretion efficiency
1,MKKRKRRNFKRFIAAFLVLALMISLVPADKLAKST,4.89
2,MKKLLAAGIIGLLTVSIASPVFAAEK,2.43
3,MKKWRGGSQSGAIAIVLFMYTKGEAKAAGM,6.49
4,MKLKKRVSMFLVALTMCGGLFVEPAKAVKT,2.69
5,MGLGKKLSVAVAASFMSLSISLPGVQHAEG,3.41
6,MKKQIITATTAVVLGSTLFAGAASAQSD,2.54
7,MKSKWMSGLLLVAVGFSFTQVMVHAGDE,5.94
8,MKSRTIWTIILGALCIAVAYTLTKSQAGASSS,8.18
9,MKRLFMKASLVLFAVVFVFAVKGAKRAKAETH,2.04
10,MMKLLAAGIIGLLTVSIASPSFAAEK,2.05
11,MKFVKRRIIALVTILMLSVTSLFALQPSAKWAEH,5.19
12,MKRLKVSLRVWMVFLMNWVTPDRKTAAAAVY,6.85
13,MFNRLFRVCFLAALIMAFTLPNSTYAQKP,2.43
14,MKVLLSALLLLLFAEASGKKL,6.56
15,MKKARRRKAAAAVGLFTFGGVQQASAKEL,6.73
16,MKRLTLVCSIVFILRKLFYRLKIGTIPIQKLPVYKASAKTA,6.99
17,MKRSINSIFITCLLITLLTMGGMIASPASAAGT,1.88
18,MKKKLAAGLTASAIVGTTLVVFTAEAATI,5.8
19,MKKRFFGPIILAFILFAGAIEIPS,5.48
20,MKNMSCKLVVSVTLFFSFLTIGPLAHGQNS,2
21,MKKKIVALLAVIAVVSGSSMAAAPAEAKTI,3.11
22,MKKKQRAGLTASAIVGTTLVVTPAEAATI,6.45
23,MKKRKRRNFKRFIAAFLVLALMILSLVPADVLAKST,2.47
24,MRGKSAVLLSLIMLIAGFLIDFSFQM,7.67
25,MGLGKKLSVAVAASFMSLSISLPVQAAEG,1.35
26,MMSRKILLSSALSLGMLVSAAPVLATSS,3.37

row,Sequence,AmyQ secretion efficiency
1,MKKRLIGFLVLVPALIMSGITLIEANDD,4.89
2,MKNMSCKGVVSVTLFFSFLTIGPLAHAQNS,1.49
3,MKKWLKRKKSLAIAIVLFMYTKGEAKAAGM,7.31
4,MLKKKWMVGLLAGCLAAGGFSYNVFATEN,5.37
5,MKKQIITATTAVVGAASAQSI,7.59
6,MPYLKRVLLLLVTGLFMSLFAVTATKSAQTG,4.38
7,MTMLRKNMSIIGWILLLCIIPLFAFTVIASGKEV,5.45
8,MNLRKILLSSALSLGMLVSAAPLLATSS,4.04
9,MLKRTSFVSSLFISSAVLLSILLPSGQAHADDD,4.33
10,MKRRKRRYLLLGILCSAAVFLIGAPSRALGAEV,1.61
11,MKWMCSICCAAVLLAGGAAQMEAV,3.22
12,MKKWIYVVLVLSIAGIGGKRRVHAASS,7.83
13,MLTKRGRYYYRTLLGLIAWFPGAAQAEEK,9.36
14,MKKSQYFIVFICFFVLFSVHPIAAARADS,3.7
15,MKKRITLLALLAVVAFAFTDSSKAKAAEA,3.06
16,MKKAFLVFLSVVLVTTVFLVKQQESVAQTKQL,2.14
17,MKLAKRVSALTPSTTLAITAKHKEL,6.77
18,MKKRRSLIMMTGLLFGLTSPAFAAEK,3.58
19,MKRIRIPMTLALGAALTIAPLDEDASAEEN,3.3
20,MTKKAWFLPLVCVLLISGWLAPAASSSAQTT,3
21,MRSYIKVLTMCFLGLILFVPTQTALADNS,2.3
22,MKKTIMSFVAVAALSTTAFRRRKKKHASAKEI,6.72
23,MRSKKLWISLLFALTLIFTMAFSNMSAQWAGK,6.53
24,MKKVLMAFIICLSLILSVLAAPPSGAKAASV,1.88
